Experimental findings from article PMC3461516 (The Journal of Cell Biology, 2012) are described below.

The target of this experiment is His6-Mad2 (recombinant human Mad2) (human, UniProt Q13257 1-205). Kind of experiment: pull-down.
Chain of His6-Mad2 (recombinant human Mad2) (Q13257 whole entry): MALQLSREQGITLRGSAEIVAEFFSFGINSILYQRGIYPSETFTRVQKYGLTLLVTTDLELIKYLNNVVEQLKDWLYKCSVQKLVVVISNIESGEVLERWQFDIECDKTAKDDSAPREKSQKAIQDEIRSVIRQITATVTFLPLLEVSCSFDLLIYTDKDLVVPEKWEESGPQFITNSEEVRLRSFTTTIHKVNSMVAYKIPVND

B1: GST-Cdc20^N151 (first 151 amino acids of human Cdc20), wild type (domain or fragment)
chain: MAQFAFESDLHSLLQLDAPIPNAPPARWQRKAKEAAGPAPSPMRAANRSHSAGRTPGRTPGKSSSKVQTTPSKPGGDRYIPHRSAAQMEVASFLLSKENQPENSQTPTKKEHQKAWALNLNGFDVEEAKILRLSGKPQNAPEGYQNRLKVL
Take B1: the binding result is listed as “binds”.
